Results reported in paper PMC9602519, “A Novel Cryptic Clostridial Peptide That Kills Bacteria by a Cell Membrane Permeabilization Mechanism” (Microbiology Spectrum, 2022).

Target: the molecule itself
Experiment: AUC; sedimentation velocity, 50,000 rpm, 20°C, absorbance at 230 nm; 10 mM sodium bicarbonate, 5 mM sodium phosphate (pH 6.8), 100 mM NaCl; with 20 mM DPC detergent (membrane mimic); c(s) distribution in SEDFIT

B1: Intestinalin (P30) (peptide)
peptide: KNLLRRIRRKLRNKFSRSDVIKTPKIVEVN
notes: N-terminal region of the LysC autolysin of Clostridium intestinale URNW
stoichiometry N: 3
